Literature values, collected in US20170319567A1, “Use of CCR3-Inhibitors” (Alkahest, Inc., priority 2013, published 2017).

System: eosinophils
Conditions: EoE patients, anti IL-5 therapy

B1: Mepolizumab: anti IL-5 antibody (antibody, chains of the INN, looked up, V domains shown)
VH: QVTLRESGPALVKPTQTLTLTCTVSGFSLTSYSVHWVRQPPGKGLEWLGVIWASGGTDYNSALMSRLSISKDTSRNQVVLTMTNMDPVDTATYYCARDPPSSLLRLDYWGRGTPVTVSS
VL: DIVMTQSPDSLAVSLGERATINCKSSQSLLNSGNQKNYLAWYQQKPGQPPKLLIYGASTRESGVPDRFSGSGSGTDFTLTISSLQAEDVAVYYCQNVHSFPFTFGGGTKLEIK
lowering of peripheral eosinophils: 5 fold | reduction in biopsy eosinophils: 2 fold
